Target: FGF9^WT (human FGF9, residues 35-208) (human, UniProt P31371 35-208)
Test: SPR

binding result: binds
B1: FGFR1c^ecto/WT (human FGFR1c ectodomain, residues 141-365) (domain or fragment)
chain: TDNTKPNRMPVAPYWTSPEKMEKKLHAVPAAKTVKFKCPSSGTPNPTLRWLKNGKEFKPDHRIGGYKVRYATWSIIMDSVVPSDKGNYTCIVENEYGSINHTYQLDVVERSPHRPILQAGLPANKTVALGSNVEFMCKVYSDPQPHIQWLKHIEVNGSKIGPDNLPYVQILKTAGVNTTDKEMEVLHLRNVSFEDAGEYTCLAGNSIGLSHHSAWLTVLEALEER

Reference: PMC5587394 (Structure (London, England : 1993), 2017)
